The target in test [1] is SipL-3×FLAG (Clostridioides difficile) (UniProt Q181G7). Nature of the test: co-IP; SipL-3×FLAG immunoprecipitated with anti-FLAG magnetic beads from cleared lysates of sporulating C. difficile (22 h in the legend, 24 h in the methods), eluted with FLAG peptide; untagged SpoIVA detected by Western blot; SpoIVA/SipL ratio in the elution set to 1 for WT. In general terms: A western blot detects proteins with antibodies after separation by electrophoresis.

In test [2] the target is SipL (bacterial two-hybrid fusion from pKNT25-sipL) (Clostridioides difficile) (UniProt Q181G7). Nature of the test: two-hybrid; bacterial adenylate cyclase two-hybrid (BACTH) in E. coli BTH101; pKNT25-sipL with pUT18C-spoIVA variants; plates with 0.5 mM IPTG, 40 h at 30°C; β-galactosidase activity in Miller units.

With “SpoIVA T75A, untagged, in sporulating C. difficile (from UniProt Q182W3 1-491) (natural protein)”, in test [1], the fold more coimmunoprecipitated with SipL-3×FLAG relative to wild-type SpoIVA was determined as 1.5 fold. As to “SpoIVA T75A (bacterial two-hybrid fusion, pUT18C) (from UniProt Q182W3 1-491) (natural protein)”, the fold increase of binding to SipL relative to WT SpoIVA (β-galactosidase activity) in test [2] was 2 fold.

With “SpoIVA D102A, untagged, in sporulating C. difficile (from UniProt Q182W3 1-491) (natural protein)”, the fold more coimmunoprecipitated with SipL-3×FLAG relative to wild-type SpoIVA in test [1] was 1.8 fold. “SpoIVA K35E (bacterial two-hybrid fusion, pUT18C) (from UniProt Q182W3 1-491) (natural protein)”: the fold reduction of binding to SipL relative to wild-type SpoIVA (β-galactosidase activity) in test [2] was found to be 100 fold. As for “SpoIVA K35A, untagged, in sporulating C. difficile (from UniProt Q182W3 1-491) (natural protein)”, in test [1], the fold less coimmunoprecipitated with SipL-3×FLAG relative to wild-type SpoIVA is 3 fold.

“SpoIVA K35A (bacterial two-hybrid fusion, pUT18C) (from UniProt Q182W3 1-491) (natural protein)” displayed a fold reduction of binding to SipL relative to wild-type SpoIVA (β-galactosidase activity) in test [2] of 3 fold. “SpoIVA K35E, untagged, in sporulating C. difficile (from UniProt Q182W3 1-491) (natural protein)”: the fold less coimmunoprecipitated with SipL-3×FLAG relative to wild-type SpoIVA in test [1] worked out at 10 fold.

The values above are taken from publication PMC7549369.
